Assay results published in patent US20100305307A1 (published 2010).
Blank lines part the entries; values can stand above or below the molecule they belong to.

Experiments:
[1] = biological target: human EGF-r expressed on the surface of human carcinoma cells (A431, SW948) (human) (UniProt P00533); test: cell-based or functional assay
[2] = biological target: soluble EGF-r purified from A431 cell membranes (Sigma, E-3641) (human, UniProt P00533 25-1210, limits assumed); test: BIAcore, solid phase, antigen immobilized on the sensor surface
Protocol: Determination of affinity constants of fully human Mabs by BIAcore: Affinity measurement of purified human monoclonal antibodies, Fab fragments, or hybridoma supernatants by plasmon resonance was carried out using the BIAcore 2000 instrument, using general procedures outlined by the manufacturers.
Based upon the general procedures outlined by the manufacture, kinetic analyses of the antibodies were performed using antigens immobilized onto the sensor surface at a low density. […] The dissociation (kd or koff) and association (ka or kₒₙ) rates were determined using the software provided by the manufacturer (BIA evaluation 2.1).

- IC50, inhibition of A431 cell proliferation in vitro [1]: 0.66 nM
Molecule: murine monoclonal antibody 528

- Kd [2]: 0.076 nM
B1: antibody secreted by the hybridoma E1.1 (antibody, V domains shown)
VH: VSGGSINSGDYYWSWIRQHPGKGLDCIGYIYYSGSTYYNPSLKSRVTISVDTSKNQFFLKLTSVTAADTAVYYCARSTVVNPGWFDPWGQGTLVTVSS
VL: TITCQASQDINNYLNWFQQKPGKAPKVLIHDASNLETGGPSRFSGSGSGTDFTFTISGLQPEDIATYYCQQYESLPLTFGGGTKVEIKR
notes: Fully human IgG2 heavy chain with human kappa light chain; they were cloned by PCR between V-region and constant-region primers, so they are probably not full chains
